Measurements: paper PMC12954864

Target: GST-tag (glutathione S-transferase) freed from GST-ΔN-ATAD2B
Assay: SEC; Superdex 200 Increase 10/300 GL (ÄKTAprime), ATAD2B sample from E. coli against a molecular-weight standard mixture; peak 1 ~9 ml near thyroglobulin (670 kDa), peak 2 ~15 ml before ovalbumin (44 kDa)

“GST-tag (glutathione S-transferase) freed from GST-ΔN-ATAD2B” showed a stoichiometry N of 2.
